Results taken from patent US20210238281A1 (INSTITUT NATIONAL DE LA SANTE ET DE LA RECHERCHE MEDICALE …, published 2021).

T1: recombinant human MOG protein (human, UniProt Q16653 30-154, limits assumed)
T1 construct: Bought recombinant protein; also called HMOG
T1 sequence (looked up): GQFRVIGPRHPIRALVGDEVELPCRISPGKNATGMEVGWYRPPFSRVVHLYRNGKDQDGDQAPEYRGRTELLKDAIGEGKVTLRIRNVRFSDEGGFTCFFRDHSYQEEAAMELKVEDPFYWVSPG

T2: recombinant murine MOG protein (murine, UniProt Q61885 29-156, limits assumed)
T2 construct: Bought recombinant protein; also called MMOG
T2 sequence (looked up): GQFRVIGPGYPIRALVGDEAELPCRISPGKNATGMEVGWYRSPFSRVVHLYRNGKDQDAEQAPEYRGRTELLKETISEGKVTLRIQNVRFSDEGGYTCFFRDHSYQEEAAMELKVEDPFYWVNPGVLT


Columns and labels:
[1] = biological target: T1, recombinant human MOG protein; experiment: phage-scFv ELISA on coated recombinant human MOG (0.5 µg/well), anti-M13 HRP, OD450 over BSA background
Experimental: (§1) The binding characteristics of the scFvs expressed on the surface of the phages isolated during the screening were determined using an ELISA assay using the recombinant MOG protein (R&D system). Along with the selected clones, phage-scFv-8-18C5 is expressed to serve as a positive control for ELISA. Briefly, phage-scFv were produced in the form of clones isolated on a 96-well plate in 800 μl of 2YT/ampicillin/glucose cultures infected with the helper phage M13K07 (as described previously). The phages produced overnight at 26° C. were then recovered in the supernatants after 30 minutes of centrifugation at 3000 g. These supernatants were directly diluted 1/2 in PBS/4% BSA/0.1% Tween 20 and tested on Maxisorp immunoplates previously coated with 0.5 μg of human or murine MOG or PBS (background control (bdf) in BSA)/well and blocked with 4% BSA in PBS. After incubation for 2 hours at 37° C., the wells were washed 3 times with PBS/0.1% Tween-20 and bound phages-scfv were detected with anti-M13 HRP antibody (GE Healthcare). The plate is read at 450 nm (OD) on a plate reader (TECAN). The results are expressed as a ratio: OD on target/OD bdf (OD on an uncoated plate saturated with BSA) and the ratios are compared with that obtained for the positive control.

[2] = biological target: T2, recombinant murine MOG protein; experiment: phage-scFv ELISA on coated recombinant murine MOG (0.5 µg/well), anti-M13 HRP, OD450 over BSA background
Experimental: as §1

Binder	ratio OD on target/OD bdf [1] [ratio]	ratio OD on target/OD bdf [2] [ratio]
anti-MOG MO4H-65 antibody (scFv, V domains shown) VH: EVQLVQPGAEVKKPGASVKVSCKASDYTFTSYGISWVRQAPGQGLEWMGWISAYNGNTYYARKFGRVTMTTDTSTTTAYMELRRLRSEDTAVYYCARSGVDNIDYLFDYWGQGTLVTVSS VL: EIVMTQSPGTMSVSPGESATLSCRASQSVSSNLAWYQQKPGQAPRLLIYGASTRATGLPARFSGSGSRTDFTLTISSLQPEDFATYYCQQTTSFPLTFSGGTKLEIT	2.44	
anti-MOG MO4H-03 antibody (scFv, V domains shown) VH: QVQLVQSGTEVKKPGASVKVSCKVSGYTLTELSMHWVRQAPGKGLEWMGGFDPEDGETIYAQKFQGRVTMTEDTSTDTAYMELSSLRSEDTAVYYCATGATGAFDIWGQGTTVTVSS VL: DIVMTQTPLSSPVTLGQPASISCRSSQSLVDSDGNTYLNWLQQRPGQPPRLLIYKISNRFSGVPDRFSGSGAGTEFTLKISRVEAEDVGVYYCMQATQFPHTFGQGTKLEIK	5.14	9.12
anti-MOG MO4H-51 antibody (scFv, V domains shown) VH: QVQLVQSGAEVKKPGASVKVSCKASGYTFTSYGMHWVRQAPGQRLEWMGWINPGNGNTKYSQKFQGRVTITRDTSASTAYMDLSSLRSEDTAVYYCARLPRIGGWFDPWGQGTLVTVSS VL: not shown	3.46	
anti-MOG MO3B-03 antibody (scFv, V domains shown, T0004 labels followed) VH: QVQLQQSGPGLVRPSQTLSLTCAISGDSVSSSSAAWNWVRSPSRGLEWLGRTYYRSKWYYDYAVSVKNRIAINPDTSKNQFSLHLNSVTPEDTAVYYCATGWLRGHLDYWGQGTLVTVSS VL: AIQMTQSPSSVSASVGDRVTITCRATQSISTYLNWYQQKVGRGPKLLVYAASRLQTGVPSRFSGSGSGTDFTLTISSLQPEDSATYYCQQSYSAPPAFGGGTKVEIK	6.23	5.55
anti-MOG MO3J-72 antibody (scFv, V domains shown) VH: EVQLVESGGGSVKPGGSLRLSCAASGFRFDDYAMHWVRQAPGKGLEWVSGISWNSGAIGYADSVQGRFTISGDNAKNTLYLQMNGLRVEDTAMYYCARDGHGDYPIDYWGQGTLVTVSS VL: QSVLTQPPSVSGAPGQRVSISCTGSGSNIGAGFDVHWYQQVPGTTPKLLIYGNNNRPSGVPDRFSGSTSATSASLAITGLQADDEADYYCQSYDRSLRYVFGTGTKLTVL	2.05	

Continued, values first:

ratio OD on target/OD bdf [1] [ratio]	ratio OD on target/OD bdf [2] [ratio]	Binder
6.57	4.68	anti-MOG MO4H-46 antibody (scFv, V domains shown) VH: QVQLVQSGAEVKKPGASVKVSCKASGYTFTSYAMHWVRQAPGQRLEWMGWINAGNGNAKYSQKFQGRVTLTRDTSASTAYMKLSSLRSEDTAVYYCARGAPTYRYFDLWGRGTLVTVSS VL: QSVLTQPPSVSAAPGQKVTISCSGSSSNIGNNYVAWYQQLPGTAPKLLIYDNNKRPSGIPDRFSGSKSGTSATLGITGLQTGDEADYYCGTSDSSLSAVVFGGGTKLTVL
9.36	9.78	anti-MOG MO4H-04 antibody (scFv, V domains shown) VH: EVQLVQSGAEVKKPVASVKVSCKASGYTFTSYGISWVRQAPGQGLEWMGWISAYNGNTNYAQKLQGRVTMTTDTSTSTAYMELRSLRSDDTAVYYCARNMGCSSTSCFVSWFDPWGQGTLVTVSS VL: QSALTQPPSASGSPGQSVTISCTGTHSDVGSFDSVSWYQQHPDKAPKLIIYDVNKRPAGVPHRFSGSKSGNTASLTVSGLQSEDEADYYCNSYAGVDNFVFGTGTKVTVL
2.99		anti-MOG MO4H-55 antibody (scFv, V domains shown) VH: QVQLQQSGPGLVKPSQTLSLTCAISGDSVSSNSAAWNWIRQSPSRGLEWLGRTYYRSKWYNDYAESVKSRMTVTSDTSKNQVSLHLNSVTPEDTAVYYCAREHIAVPGVFDIWGQGTLVTVSS VL: DVVMTQPPSASGTPGQGVTISCSGSSSNIGSNTVNWYQQLPGTAPKLLIYGSGQRPSGVPDRFSGSRSGTSASLAISGLQSEDEADYYCAAWDDSLNGRVFGQGTKVDIT
